Laboratory results published in patent US20260132197A1 (NANJING LEGEND BIOTECH, published 2026).

Columns and labels:
[1] = molecular target: T1, wild type human CD47 (Acro Biosystems, cat. no. CD7-H5227) (human, UniProt Q08722 19-139); experiment: SPR, IgG captured, CD47 in flow; exp 3;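 note: other target is a CD47 mutein carrying C33G, used to obtain true monovalent affinity, with kon and koff fitted from SPR binding curves and KD derived from both rates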
T1 construct: Bought protein used as SPR analyte; also called Human CD47 wt; wild-type CD47
T1 sequence (Q08722 19-139 limits assumed): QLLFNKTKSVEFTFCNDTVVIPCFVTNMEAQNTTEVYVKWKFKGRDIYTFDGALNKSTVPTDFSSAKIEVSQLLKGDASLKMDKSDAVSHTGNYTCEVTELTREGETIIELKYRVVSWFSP

[2] = molecular target: T2, Human CD47-C33G (human, UniProt Q08722 19-135); experiment: SPR, IgG captured, CD47 in flow; exp 3;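 note: other target is a CD47 mutein carrying C33G, used to obtain true monovalent affinity, with kon and koff fitted from SPR binding curves and KD derived from both rates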
T2 construct: also called CD47 mutein with C33G mutation
T2 sequence (Q08722 19-135 C33G limits assumed): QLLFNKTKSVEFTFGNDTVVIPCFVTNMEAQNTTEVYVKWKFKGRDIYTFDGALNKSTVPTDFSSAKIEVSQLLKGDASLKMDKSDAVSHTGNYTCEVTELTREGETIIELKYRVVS

[3] = molecular target: T1, wild type human CD47 (Acro Biosystems, …); experiment: SPR, IgG captured, CD47 in flow; exp 2;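 note: rates derived from association and dissociation curves, KD estimated from them, C33G mutein used to avoid CD47 IgV homodimers for true monovalent affinity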
[4] = molecular target: T2, Human CD47-C33G; experiment: SPR, IgG captured, CD47 in flow; exp 2;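 note: rates derived from association and dissociation curves, KD estimated from them, C33G mutein used to avoid CD47 IgV homodimers for true monovalent affinity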
[5] = molecular target: T1, wild type human CD47 (Acro Biosystems, …); experiment: SPR, IgG captured, CD47 in flow; exp 4;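 note: biacore T200 SPR using IgG from transfected HEK293 supernatants against wild-type human CD47 or its C33G mutein, rates fitted to association and dissociation curves, KD estimated from them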
[6] = molecular target: T2, Human CD47-C33G; experiment: SPR, IgG captured, CD47 in flow; exp 4;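 note: biacore T200 SPR using IgG from transfected HEK293 supernatants against wild-type human CD47 or its C33G mutein, rates fitted to association and dissociation curves, KD estimated from them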

Binder	Kd [1] [nM]	koff [1] [s⁻¹]	kon [1] [M⁻¹ s⁻¹]	Kd [2] [nM]	koff [2] [s⁻¹]	kon [2] [M⁻¹ s⁻¹]	Kd [3] [nM]	koff [3] [s⁻¹]	kon [3] [M⁻¹ s⁻¹]	Kd [4] [nM]	koff [4] [s⁻¹]	kon [4] [M⁻¹ s⁻¹]	also measured
108VH10.Mg / 108VL10.Me (antibody, V domains shown, 4D5-framework series; constant regions not restated for this series; also called VH10.Mg VL10.Me) VH: EVQLVESGGGLVQPGGSLRLSCAASGFTFSHHWIHWVRQAPGKGLEWVAMIDASDSETRLSQKFKDRFTISADTSKNTAYLQMNSLRAEDTAVYYCSRLGRYYFDYWGQGTLVTVSS VL: DIQMTQSPSSLSASVGDRVTITCRASQSISSYLNWYQQKPGKAPKLLIYGASSRYSGVPSRFSGSRSGTDFTLTISSLQPEDFATYYCGESYGHLYTFGQGTKVEIK	4.8	0.0032	680000	31	0.0072	230000	–	–	–	–	–	–	–
108VH10.Mb / 108VL10.M1 (antibody, V domains shown, 4D5-framework series; constant regions not restated for this series; also called VH10.Mb VL10.M1) VH: EVQLVESGGGLVQPGGSLRLSCAASGYSFTHHWMHWVRQAPGKGLEWVAMIDPSDSETRLSQKFKDRFTISADTSKNTAYLQMNSLRAEDTAVYYCSRLGRYYFDYWGQGTLVTVSS VL: DIQMTQSPSSLSASVGDRVTITCRASENVGTYISWYQQKPGKAPKLLIYGASNRYTGVPSRFSGSRSGTDFTLTISSLQPEDFATYYCGESYGHLYTFGQGTKVEIK	–	–	–	–	–	–	6.5	0.0016	240000	39	0.0035	89000	–
108VH10.Md / 108VL10.M1 (antibody, V domains shown, 4D5-framework series; constant regions not restated for this series; Asp52 replaced with Lys; also called VH10.Md VL10.M1) VH: EVQLVESGGGLVQPGGSLRLSCAASGYSFTHHWIHWVRQAPGKGLEWVAMIKPSDSETRLSQKFKDRFTISADTSKNTAYLQMNSLRAEDTAVYYCSRLGRYYFDYWGQGTLVTVSS VL: DIQMTQSPSSLSASVGDRVTITCRASENVGTYISWYQQKPGKAPKLLIYGASNRYTGVPSRFSGSRSGTDFTLTISSLQPEDFATYYCGESYGHLYTFGQGTKVEIK	–	–	–	–	–	–	–	–	–	–	–	–	binding result [4]: no binding (tested: 2.5 nM to 1.28 µM of antigen tested)
108VH10.Me / 108VL10.M1 (antibody, V domains shown, 4D5-framework series; constant regions not restated for this series; Pro53 replaced with Gln; also called VH10.Me VL10.M1) VH: EVQLVESGGGLVQPGGSLRLSCAASGYSFTHHWIHWVRQAPGKGLEWVAMIDQSDSETRLSQKFKDRFTISADTSKNTAYLQMNSLRAEDTAVYYCSRLGRYYFDYWGQGTLVTVSS VL: DIQMTQSPSSLSASVGDRVTITCRASENVGTYISWYQQKPGKAPKLLIYGASNRYTGVPSRFSGSRSGTDFTLTISSLQPEDFATYYCGESYGHLYTFGQGTKVEIK	–	–	–	–	–	–	53	0.0027	52000	–	–	–	–
108VH10.Ma / 108VL10.M1 (antibody, V domains shown, 4D5-framework series; constant regions not restated for this series; also called VH10.Ma VL10.M1) VH: EVQLVESGGGLVQPGGSLRLSCAASGFTFSHHWIHWVRQAPGKGLEWVAMIDPSDSETRLSQKFKDRFTISADTSKNTAYLQMNSLRAEDTAVYYCSRLGRYYFDYWGQGTLVTVSS VL: DIQMTQSPSSLSASVGDRVTITCRASENVGTYISWYQQKPGKAPKLLIYGASNRYTGVPSRFSGSRSGTDFTLTISSLQPEDFATYYCGESYGHLYTFGQGTKVEIK	–	–	–	–	–	–	8.7	0.002	230000	57	0.0046	82000	–
108VH10.Mj / 108VL10.Me (antibody, V domains shown, 4D5-framework series; constant regions not restated for this series; also called VH10.Mj VL10.Me) VH: EVQLVESGGGLVQPGGSLRLSCAASGFTFSHHWIHWVRQAPGKGLEWVAMIDASDSETRLSQSFKDRFTISADTSKNTAYLQMNSLRAEDTAVYYCSRLGRYYFDYWGQGTLVTVSS VL: DIQMTQSPSSLSASVGDRVTITCRASQSISSYLNWYQQKPGKAPKLLIYGASSRYSGVPSRFSGSRSGTDFTLTISSLQPEDFATYYCGESYGHLYTFGQGTKVEIK	5.8	0.0035	610000	38	0.0078	210000	–	–	–	–	–	–	–
108VH10 / 108VL10.Md (antibody, V domains shown, 4D5-framework series; constant regions not restated for this series; also called VH10 VL10.Md) VH: EVQLVESGGGLVQPGGSLRLSCAASGYSFTHHWIHWVRQAPGKGLEWVAMIDPSDSETRLSQKFKDRFTISADTSKNTAYLQMNSLRAEDTAVYYCSRLGRYYFDYWGQGTLVTVSS VL: DIQMTQSPSSLSASVGDRVTITCRASENVGTYISWYQQKPGKAPKLLIYGASNRYSGVPSRFSGSRSGTDFTLTISSLQPEDFATYYCGESYGHLYTFGQGTKVEIK	–	–	–	–	–	–	7.1	0.0016	230000	42	0.0036	86000	–
108VH10.Ml / 108VL10.Me (antibody, V domains shown, 4D5-framework series; constant regions not restated for this series; also called VH10.Ml VL10.Me) VH: EVQLVESGGGLVQPGGSLRLSCAASGFTFSHHWIHWVRQAPGKGLEWVAMIDASDSETRLSQKFKGRFTISADTSKNTAYLQMNSLRAEDTAVYYCSRLGRYYFDYWGQGTLVTVSS VL: DIQMTQSPSSLSASVGDRVTITCRASQSISSYLNWYQQKPGKAPKLLIYGASSRYSGVPSRFSGSRSGTDFTLTISSLQPEDFATYYCGESYGHLYTFGQGTKVEIK	5.6	0.0034	610000	36	0.0073	200000	–	–	–	–	–	–	–
108VH10 / 108VL10.Mc (antibody, V domains shown, 4D5-framework series; constant regions not restated for this series; also called VH10 VL10.Mc) VH: EVQLVESGGGLVQPGGSLRLSCAASGYSFTHHWIHWVRQAPGKGLEWVAMIDPSDSETRLSQKFKDRFTISADTSKNTAYLQMNSLRAEDTAVYYCSRLGRYYFDYWGQGTLVTVSS VL: DIQMTQSPSSLSASVGDRVTITCRASENVGTYISWYQQKPGKAPKLLIYGASSRYTGVPSRFSGSRSGTDFTLTISSLQPEDFATYYCGESYGHLYTFGQGTKVEIK	–	–	–	–	–	–	10	0.002	190000	64	0.0044	69000	–
108VH10.Mi / 108VL10.Me (antibody, V domains shown, 4D5-framework series; constant regions not restated for this series; also called VH10.Mi VL10.Me) VH: EVQLVESGGGLVQPGGSLRLSCAASGFTFSHHWIHWVRQAPGKGLEWVAMIDASDSETRLSDKFKDRFTISADTSKNTAYLQMNSLRAEDTAVYYCSRLGRYYFDYWGQGTLVTVSS VL: DIQMTQSPSSLSASVGDRVTITCRASQSISSYLNWYQQKPGKAPKLLIYGASSRYSGVPSRFSGSRSGTDFTLTISSLQPEDFATYYCGESYGHLYTFGQGTKVEIK	5.2	0.0034	640000	38	0.0087	230000	–	–	–	–	–	–	–
108VH10 / 108VL10.Ma (antibody, V domains shown, 4D5-framework series; constant regions not restated for this series; also called VH10 VL10.Ma) VH: EVQLVESGGGLVQPGGSLRLSCAASGYSFTHHWIHWVRQAPGKGLEWVAMIDPSDSETRLSQKFKDRFTISADTSKNTAYLQMNSLRAEDTAVYYCSRLGRYYFDYWGQGTLVTVSS VL: DIQMTQSPSSLSASVGDRVTITCRASQSISSYLNWYQQKPGKAPKLLIYGASNRYTGVPSRFSGSRSGTDFTLTISSLQPEDFATYYCGESYGHLYTFGQGTKVEIK	–	–	–	–	–	–	1.4	0.0015	1e+06	8	0.0029	360000	–
108VH10.Mh / 108VL10.Me (antibody, V domains shown, 4D5-framework series; constant regions not restated for this series; also called VH10.Mh VL10.Me) VH: EVQLVESGGGLVQPGGSLRLSCAASGFTFSHHWIHWVRQAPGKGLEWVAMIDASDSETRLVQKFKDRFTISADTSKNTAYLQMNSLRAEDTAVYYCSRLGRYYFDYWGQGTLVTVSS VL: DIQMTQSPSSLSASVGDRVTITCRASQSISSYLNWYQQKPGKAPKLLIYGASSRYSGVPSRFSGSRSGTDFTLTISSLQPEDFATYYCGESYGHLYTFGQGTKVEIK	17	0.0066	380000	160	0.013	79000	–	–	–	–	–	–	–
108VH5.M20 / 108VL1.M5 (antibody, human IgG4 S228P, kappa, V domains shown, Full-length IgG4 (S228P), kappa; also called VH5.M20 VL1.M5) VH: EVQLVQSGAEVKKPGASVKVSCKASGYTFTHHWMHWVRQAPGQGLEWMGMIDASDAETRYAQKFQGRVTMTRDTSTSTVYMELSSLRSEDTAVYYCARLGRYYFDYWGQGTLVTVSS VL: EIVLTQSPATLSLSPGERATLSCRASQSVSSYLAWYQQKPGQAPRLLIYGASNRATGIPARFSGSGSGTDFTLTISSLEPEDFAVYYCGESYGHLYTFGGGTKVEIKR	–	–	–	–	–	–	–	–	–	–	–	–	Kd [5]: 3 nM; koff [5]: 0.0022 s⁻¹; kon [5]: 710000 M⁻¹ s⁻¹; Kd [6]: 15 nM; koff [6]: 0.0045 s⁻¹; kon [6]: 310000 M⁻¹ s⁻¹
108VH5.M26 / 108VL1.M5 (antibody, human IgG4 S228P, kappa, V domains shown, Full-length IgG4 (S228P), kappa; also called VH5.M26 VL1.M5) VH: EVQLVQSGAEVKKPGASVKVSCKASGYTFTHHWMHWVRQAPGQGLEWMGMIDASDVETRYAQKFQGRVTMTRDTSTSTVYMELSSLRSEDTAVYYCARLGRYYFDYWGQGTLVTVSS VL: EIVLTQSPATLSLSPGERATLSCRASQSVSSYLAWYQQKPGQAPRLLIYGASNRATGIPARFSGSGSGTDFTLTISSLEPEDFAVYYCGESYGHLYTFGGGTKVEIKR	–	–	–	–	–	–	–	–	–	–	–	–	Kd [5]: 4.6 nM; koff [5]: 0.0026 s⁻¹; kon [5]: 570000 M⁻¹ s⁻¹; Kd [6]: 23 nM; koff [6]: 0.0054 s⁻¹; kon [6]: 240000 M⁻¹ s⁻¹
